Results published in patent US20100087368A1.
Blank lines part the entries; values can stand above or below the molecule they belong to.

Legend:
rat Protein C (rat) = rat Protein C (rat) (UniProt P31394); test: cell-based or functional assay
human sTM variant F376L = target: T1, human sTM variant F376L
T1 chain: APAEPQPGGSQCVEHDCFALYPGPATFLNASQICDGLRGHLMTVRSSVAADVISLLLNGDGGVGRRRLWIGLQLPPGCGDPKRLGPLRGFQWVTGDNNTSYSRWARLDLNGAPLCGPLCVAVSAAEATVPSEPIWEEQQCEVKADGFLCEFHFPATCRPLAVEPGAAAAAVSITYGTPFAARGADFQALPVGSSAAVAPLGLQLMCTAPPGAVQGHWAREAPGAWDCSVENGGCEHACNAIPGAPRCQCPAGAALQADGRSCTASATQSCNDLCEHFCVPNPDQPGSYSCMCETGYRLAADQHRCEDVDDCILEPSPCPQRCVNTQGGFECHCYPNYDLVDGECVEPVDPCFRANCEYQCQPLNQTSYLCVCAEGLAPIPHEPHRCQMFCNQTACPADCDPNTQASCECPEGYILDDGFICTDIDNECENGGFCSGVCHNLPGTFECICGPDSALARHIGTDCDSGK

[1] = target: T2, human soluble thrombomodulin (human sTM)
T2 chain: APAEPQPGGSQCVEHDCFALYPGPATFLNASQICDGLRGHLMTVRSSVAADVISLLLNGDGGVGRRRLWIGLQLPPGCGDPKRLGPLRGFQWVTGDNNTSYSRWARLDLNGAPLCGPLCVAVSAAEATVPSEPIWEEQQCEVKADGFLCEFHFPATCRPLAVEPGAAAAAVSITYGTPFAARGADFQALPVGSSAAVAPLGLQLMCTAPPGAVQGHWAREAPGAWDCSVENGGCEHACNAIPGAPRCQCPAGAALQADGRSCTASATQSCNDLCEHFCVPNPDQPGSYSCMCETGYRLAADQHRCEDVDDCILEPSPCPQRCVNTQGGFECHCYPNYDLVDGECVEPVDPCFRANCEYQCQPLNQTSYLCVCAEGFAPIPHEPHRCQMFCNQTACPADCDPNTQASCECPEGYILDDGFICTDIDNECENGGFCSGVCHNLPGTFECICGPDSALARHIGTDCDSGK

[2] = target: T3, rat soluble thrombomodulin (rat sTM)
T3 chain: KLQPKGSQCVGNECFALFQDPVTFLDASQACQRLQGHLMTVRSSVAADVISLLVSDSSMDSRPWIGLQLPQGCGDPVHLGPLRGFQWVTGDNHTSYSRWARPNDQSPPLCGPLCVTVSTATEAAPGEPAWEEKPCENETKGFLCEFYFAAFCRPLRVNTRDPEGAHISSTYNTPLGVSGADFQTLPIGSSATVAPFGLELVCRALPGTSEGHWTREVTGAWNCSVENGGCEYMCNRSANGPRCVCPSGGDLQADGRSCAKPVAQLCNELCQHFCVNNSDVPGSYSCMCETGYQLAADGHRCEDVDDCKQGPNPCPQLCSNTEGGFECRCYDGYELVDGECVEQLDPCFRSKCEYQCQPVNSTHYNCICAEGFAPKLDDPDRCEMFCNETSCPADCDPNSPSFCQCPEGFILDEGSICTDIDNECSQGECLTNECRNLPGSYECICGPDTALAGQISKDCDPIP

percent PC activation in the presence of human thrombin, against human thrombin with human Protein C as 100% (human aortic endothelial cells, chromogenic substrate) (rat Protein C (rat)): 12.8%
Molecule: endogenous human thrombomodulin on human aortic endothelial cells (from UniProt P07204 19-575)

percent PC activation in the presence of rat thrombin, against human thrombin with human Protein C as 100% (human aortic endothelial cells, chromogenic substrate) (rat Protein C (rat)): 0%
Molecule: endogenous human thrombomodulin on human aortic endothelial cells (from UniProt P07204 19-575) (receptor)

B1: rat Protein C (protein)
chain: ANSFLEEVRAGSLERECMEEICDFEEAQEIFQNVEDTLAFWIKYFDGDQCSTPPLDHQCDSPCCGHGTCIDGLGGFSCSCDKGWEGRFCQQEMGFQDCRVKNGGCYHYCLEETRGRRCRCAPGYELADDHMHCRPTVNFPCGKLWKRTDKKRKNFKRDIDPEDEELELGPRIVNGTLTKQGDSPWQAILLDSKKKLACGGVLIHTSWVLTAAHCLESSKKLTVRLGEYDLRRRDPWELDLDIKEVLVHPNYTRSNSDNDIALLRLSQPATLSKTIVPICLPNSGLAQELSQAGQETVVTGWGYQSDKVKDGRRNRTFILTFIRIPLAARNDCMQVMNNVVSENMLCAGIIGDTRDACDGDSGGPMVVFFRGTWFLVGLVSWGEGCGHLNNYGVYTKVGSYLKWIHSYIGERDVSLKSPKL
Vmax(mOD405/min) of rat Protein C activation in the presence of rat thrombin (chromogenic substrate S2366) (human sTM variant F376L): TLD
Vmax(mOD405/min) of rat Protein C activation in the presence of rat thrombin (chromogenic substrate S2366) [1]: 3.1 mOD405/min
Vmax(mOD405/min) of rat Protein C activation in the presence of rat thrombin (chromogenic substrate S2366) [2]: 47.1 mOD405/min
